This is an account of results in PMC4381072, “Short antisense-locked nucleic acids (all-LNAs) correct alternative splicing abnormalities in myotonic dystrophy”.

This data set has as its target T1, MBNL1 (isoform encoded by exons 1-4) (UniProt Q9NR56 1-269).
T1 sequence: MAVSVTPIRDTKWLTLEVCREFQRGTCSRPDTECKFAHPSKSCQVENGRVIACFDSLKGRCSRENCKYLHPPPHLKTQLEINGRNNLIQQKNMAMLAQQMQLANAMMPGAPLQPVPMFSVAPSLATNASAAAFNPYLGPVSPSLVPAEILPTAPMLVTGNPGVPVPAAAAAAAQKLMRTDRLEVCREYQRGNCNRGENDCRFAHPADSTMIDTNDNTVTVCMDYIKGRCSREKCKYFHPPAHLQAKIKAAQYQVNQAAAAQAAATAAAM
In words: filter binding; 0-500 nM MBNL1; 0.5 nM oligomer; FBA: FBB (50 mM Tris-HCl pH 8.0, 1 mM MgCl2, 0.05% Tween 20) with 250 mM NaCl and 15 mM KCl, 37 C, 30 min, 30 ul. The following applies: protein: recombinant; tags: N-terminal GST; C-terminal His6; label: radiolabeled; single strand.

Consider CAGCAGCAGC (XNA, all LNA, phosphodiester) [PO-LNA-CAG-10], for which the binding result was “no binding”.

Turning to CAGCAGCA (XNA, all LNA, phosphodiester) [PO-LNA-CAG-8], the binding result was “no binding”.
